Measured values published in article PMC7721868 (Scientific Reports, 2020).

Experiments:
[1] = biological target: T1, ubiquitin on ubiquitin-coated agarose beads (UniProt P0CG53 1-76); test: pull-down; ubiquitin-coated agarose beads with 1 µM purified GST-fusion protein in Buffer A (25 mM HEPES–KOH pH 7.4, 125 mM potassium acetate, 2.5 mM magnesium acetate, 5 mM EGTA) + 1% FBS, 2 h at room temperature; uncoated CL4B beads as control; immunoblot with anti-GST or anti-Stx3; conditions: both partners purified
T1 construct: ubiquitin, the cut product of the ubiquitin precursors; Coupled to agarose; also called ubiquitin-coated beads; ubiquitin-coated (U) agarose beads; source: bought: Millipore-Sigma (ubiquitin-coated agarose)

[2] = biological target: T2, Purified bovine ubiquitin (bovine, UniProt P0CG53 1-76); test: SPR; Biacore 2000, room temperature, HBS-EP buffer (10 mM HEPES pH 7.4, 150 mM NaCl, 3 mM EDTA, 0.005% Tween-20); GST-fusion proteins captured on a CM5 chip with a GST capture kit, free ubiquitin flowed over; conditions: both partners purified
T2 construct: ubiquitin, bovine, the cut product of the ubiquitin precursors; also called free ubiquitin; mono-ubiquitin in solution; source: bought: Millipore-Sigma (U6253)

| Binder | fold change of pull-down against wild-type Stx3 [1] [fold] | fold change of pull-down against the entire Stx3 cytoplasmic domain [1] [fold] | Kd [2] [µM] |
| --- | --- | --- | --- |
| GST fusion protein of the constitutively open mutant of cytoplasmic region Stx3 (L165A/E166A) (domain or fragment, rat, UniProt Q08849 1-265, looked up, syntaxin 3 (Stx3), rat, cytoplasmic region, residues 1-265, with LE165/166AA; Made by site-directed mutagenesis in the Stx3 (1–265) pGEX-4T-3 plasmid; also called open-conformation mutant (LE165/166AA); source: E. coli Rosetta 2, purified (glutathione agarose, eluted with glutathione, dialyzed)) MKDRLEQLKAKQLTQDDDTDEVEIAIDNTAFMDEFFSEIEETRLNIDKISEHVEEAKKLYSIILSAPIPEPKTKDDLEQLTTEIKKRANNVRNKLKSMEKHIEEDEVRSSADLRIRKSQHSVLSRKFVEVMTKYNEAQVDFRERSKGRIQRQLEITGKKTTDEEAAEMLESGNPAIFTSGIIDSQISKQALSEIEGRHKDIVRLESSIKELHDMFMDIAMLVENQGEMLDNIELNVMHTVDHVEKARDETKRAMKYQGQARKKLI | 1.73 | – | – |
| GST-fusion protein containing only the Habc domain (1–146) of Stx3 (domain or fragment, rat, UniProt Q08849 1-146, looked up, syntaxin 3 (Stx3), rat, N-terminal region with the Habc domain, residues 1-146; Cloned into pGEX-4T-3, which by my knowledge puts GST at the N-terminus; also called GST-Stx3-Habc; GST-Stx3-1–146; source: E. coli Rosetta 2, purified (glutathione agarose, eluted with glutathione, dialyzed)) MKDRLEQLKAKQLTQDDDTDEVEIAIDNTAFMDEFFSEIEETRLNIDKISEHVEEAKKLYSIILSAPIPEPKTKDDLEQLTTEIKKRANNVRNKLKSMEKHIEEDEVRSSADLRIRKSQHSVLSRKFVEVMTKYNEAQVDFRERSK | – | 3.78 | 1360 |
